Reference: patent publication US12679878B2, “CRF2 receptor agonists and their use in therapy” (SANOFI, priority 2020, dated 2026)
Starred links: 1 amine or outer side, 2 acyl side, 3 side chain; linkers in the order of their positions; H or OH if unused. Non-standard residues stand in square brackets, D forms with d. Groups on a side chain read outwards from the residue. No end group written: not given here. *: point of attachment. C18 diacid = O=C(O)CCCCCCCCCCCCCCCCC(=O)*; γGlu = O=C(O)[C@H](CCC(=O)[*:2])N[*:1]; Palmitoyl = CCCCCCCCCCCCCCCC(=O)*; AEEA = NCCOCCOCC(=O)O; Aib = CC(C)(N)C(=O)O

B1: SEQ ID NO: 166 (peptide)
peptide: Ac-IVLSLD[dV]PIKLK([AEEA-AEEA-γGlu-C18 diacid])QILLEQERQK[Aib]QREQAEKNEQILEQV-NH2
SMILES: CC[C@H](C)[C@H](NC(C)=O)C(=O)N[C@H](C(=O)N[C@@H](CC(C)C)C(=O)N[C@@H](CO)C(=O)N[C@@H](CC(C)C)C(=O)N[C@@H](CC(=O)O)C(=O)N[C@@H](C(=O)N1CCC[C@H]1C(=O)N[C@H](C(=O)N[C@@H](CCCCN)C(=O)N[C@@H](CC(C)C)C(=O)N[C@@H](CCCCNC(=O)COCCOCCNC(=O)COCCOCCNC(=O)CC[C@H](NC(=O)CCCCCCCCCCCCCCCCC(=O)O)C(=O)O)C(=O)N[C@@H](CCC(N)=O)C(=O)N[C@H](C(=O)N[C@@H](CC(C)C)C(=O)N[C@@H](CC(C)C)C(=O)N[C@@H](CCC(=O)O)C(=O)N[C@@H](CCC(N)=O)C(=O)N[C@@H](CCC(=O)O)C(=O)N[C@@H](CCCNC(=N)N)C(=O)N[C@@H](CCC(N)=O)C(=O)N[C@@H](CCCCN)C(=O)NC(C)(C)C(=O)N[C@@H](CCC(N)=O)C(=O)N[C@@H](CCCNC(=N)N)C(=O)N[C@@H](CCC(=O)O)C(=O)N[C@@H](CCC(N)=O)C(=O)N[C@@H](C)C(=O)N[C@@H](CCC(=O)O)C(=O)N[C@@H](CCCCN)C(=O)N[C@@H](CC(N)=O)C(=O)N[C@@H](CCC(=O)O)C(=O)N[C@@H](CCC(N)=O)C(=O)N[C@H](C(=O)N[C@@H](CC(C)C)C(=O)N[C@@H](CCC(=O)O)C(=O)N[C@@H](CCC(N)=O)C(=O)N[C@H](C(N)=O)C(C)C)[C@@H](C)CC)[C@@H](C)CC)[C@@H](C)CC)C(C)C)C(C)C
B2: SEQ ID NO: 164 (peptide)
peptide: Ac-IVLSLD[dV]PIGLK([AEEA-AEEA-γGlu-C18 diacid])QILLEQERQK[Aib]QREQAEKNKQILEQV-NH2
SMILES: CC[C@H](C)[C@H](NC(C)=O)C(=O)N[C@H](C(=O)N[C@@H](CC(C)C)C(=O)N[C@@H](CO)C(=O)N[C@@H](CC(C)C)C(=O)N[C@@H](CC(=O)O)C(=O)N[C@@H](C(=O)N1CCC[C@H]1C(=O)N[C@H](C(=O)NCC(=O)N[C@@H](CC(C)C)C(=O)N[C@@H](CCCCNC(=O)COCCOCCNC(=O)COCCOCCNC(=O)CC[C@H](NC(=O)CCCCCCCCCCCCCCCCC(=O)O)C(=O)O)C(=O)N[C@@H](CCC(N)=O)C(=O)N[C@H](C(=O)N[C@@H](CC(C)C)C(=O)N[C@@H](CC(C)C)C(=O)N[C@@H](CCC(=O)O)C(=O)N[C@@H](CCC(N)=O)C(=O)N[C@@H](CCC(=O)O)C(=O)N[C@@H](CCCNC(=N)N)C(=O)N[C@@H](CCC(N)=O)C(=O)N[C@@H](CCCCN)C(=O)NC(C)(C)C(=O)N[C@@H](CCC(N)=O)C(=O)N[C@@H](CCCNC(=N)N)C(=O)N[C@@H](CCC(=O)O)C(=O)N[C@@H](CCC(N)=O)C(=O)N[C@@H](C)C(=O)N[C@@H](CCC(=O)O)C(=O)N[C@@H](CCCCN)C(=O)N[C@@H](CC(N)=O)C(=O)N[C@@H](CCCCN)C(=O)N[C@@H](CCC(N)=O)C(=O)N[C@H](C(=O)N[C@@H](CC(C)C)C(=O)N[C@@H](CCC(=O)O)C(=O)N[C@@H](CCC(N)=O)C(=O)N[C@H](C(N)=O)C(C)C)[C@@H](C)CC)[C@@H](C)CC)[C@@H](C)CC)C(C)C)C(C)C
B3: SEQ ID NO: 165 (peptide)
peptide: Ac-IVLSLD[dV]PIKLK([AEEA-AEEA-γGlu-C18 diacid])QILLEQARQK[Aib]QREQAEKNEQILEQV-NH2
SMILES: CC[C@H](C)[C@H](NC(C)=O)C(=O)N[C@H](C(=O)N[C@@H](CC(C)C)C(=O)N[C@@H](CO)C(=O)N[C@@H](CC(C)C)C(=O)N[C@@H](CC(=O)O)C(=O)N[C@@H](C(=O)N1CCC[C@H]1C(=O)N[C@H](C(=O)N[C@@H](CCCCN)C(=O)N[C@@H](CC(C)C)C(=O)N[C@@H](CCCCNC(=O)COCCOCCNC(=O)COCCOCCNC(=O)CC[C@H](NC(=O)CCCCCCCCCCCCCCCCC(=O)O)C(=O)O)C(=O)N[C@@H](CCC(N)=O)C(=O)N[C@H](C(=O)N[C@@H](CC(C)C)C(=O)N[C@@H](CC(C)C)C(=O)N[C@@H](CCC(=O)O)C(=O)N[C@@H](CCC(N)=O)C(=O)N[C@@H](C)C(=O)N[C@@H](CCCNC(=N)N)C(=O)N[C@@H](CCC(N)=O)C(=O)N[C@@H](CCCCN)C(=O)NC(C)(C)C(=O)N[C@@H](CCC(N)=O)C(=O)N[C@@H](CCCNC(=N)N)C(=O)N[C@@H](CCC(=O)O)C(=O)N[C@@H](CCC(N)=O)C(=O)N[C@@H](C)C(=O)N[C@@H](CCC(=O)O)C(=O)N[C@@H](CCCCN)C(=O)N[C@@H](CC(N)=O)C(=O)N[C@@H](CCC(=O)O)C(=O)N[C@@H](CCC(N)=O)C(=O)N[C@H](C(=O)N[C@@H](CC(C)C)C(=O)N[C@@H](CCC(=O)O)C(=O)N[C@@H](CCC(N)=O)C(=O)N[C@H](C(N)=O)C(C)C)[C@@H](C)CC)[C@@H](C)CC)[C@@H](C)CC)C(C)C)C(C)C
B4: SEQ ID NO: 162 (peptide)
peptide: Ac-IVLSLD[dV]PIELK([AEEA-AEEA-γGlu-C18 diacid])QILLEQERQK[Aib]QREQAEKNKQILEQV-NH2
SMILES: CC[C@H](C)[C@H](NC(C)=O)C(=O)N[C@H](C(=O)N[C@@H](CC(C)C)C(=O)N[C@@H](CO)C(=O)N[C@@H](CC(C)C)C(=O)N[C@@H](CC(=O)O)C(=O)N[C@@H](C(=O)N1CCC[C@H]1C(=O)N[C@H](C(=O)N[C@@H](CCC(=O)O)C(=O)N[C@@H](CC(C)C)C(=O)N[C@@H](CCCCNC(=O)COCCOCCNC(=O)COCCOCCNC(=O)CC[C@H](NC(=O)CCCCCCCCCCCCCCCCC(=O)O)C(=O)O)C(=O)N[C@@H](CCC(N)=O)C(=O)N[C@H](C(=O)N[C@@H](CC(C)C)C(=O)N[C@@H](CC(C)C)C(=O)N[C@@H](CCC(=O)O)C(=O)N[C@@H](CCC(N)=O)C(=O)N[C@@H](CCC(=O)O)C(=O)N[C@@H](CCCNC(=N)N)C(=O)N[C@@H](CCC(N)=O)C(=O)N[C@@H](CCCCN)C(=O)NC(C)(C)C(=O)N[C@@H](CCC(N)=O)C(=O)N[C@@H](CCCNC(=N)N)C(=O)N[C@@H](CCC(=O)O)C(=O)N[C@@H](CCC(N)=O)C(=O)N[C@@H](C)C(=O)N[C@@H](CCC(=O)O)C(=O)N[C@@H](CCCCN)C(=O)N[C@@H](CC(N)=O)C(=O)N[C@@H](CCCCN)C(=O)N[C@@H](CCC(N)=O)C(=O)N[C@H](C(=O)N[C@@H](CC(C)C)C(=O)N[C@@H](CCC(=O)O)C(=O)N[C@@H](CCC(N)=O)C(=O)N[C@H](C(N)=O)C(C)C)[C@@H](C)CC)[C@@H](C)CC)[C@@H](C)CC)C(C)C)C(C)C
B5: SEQ ID NO: 19 (peptide)
peptide: IVLSLD[dV]PTKLK([γGlu-Palmitoyl])QKLLKQERQR[Aib]EREQAEKNKRILERV-NH2
modifications: N-terminus assumed
SMILES: CCCCCCCCCCCCCCCC(=O)N[C@@H](CCC(=O)NCCCC[C@H](NC(=O)[C@H](CC(C)C)NC(=O)[C@H](CCCCN)NC(=O)[C@@H](NC(=O)[C@@H]1CCCN1C(=O)[C@H](NC(=O)[C@H](CC(=O)O)NC(=O)[C@H](CC(C)C)NC(=O)[C@H](CO)NC(=O)[C@H](CC(C)C)NC(=O)[C@@H](NC(=O)[C@@H](N)[C@@H](C)CC)C(C)C)C(C)C)[C@@H](C)O)C(=O)N[C@@H](CCC(N)=O)C(=O)N[C@@H](CCCCN)C(=O)N[C@@H](CC(C)C)C(=O)N[C@@H](CC(C)C)C(=O)N[C@@H](CCCCN)C(=O)N[C@@H](CCC(N)=O)C(=O)N[C@@H](CCC(=O)O)C(=O)N[C@@H](CCCNC(=N)N)C(=O)N[C@@H](CCC(N)=O)C(=O)N[C@@H](CCCNC(=N)N)C(=O)NC(C)(C)C(=O)N[C@@H](CCC(=O)O)C(=O)N[C@@H](CCCNC(=N)N)C(=O)N[C@@H](CCC(=O)O)C(=O)N[C@@H](CCC(N)=O)C(=O)N[C@@H](C)C(=O)N[C@@H](CCC(=O)O)C(=O)N[C@@H](CCCCN)C(=O)N[C@@H](CC(N)=O)C(=O)N[C@@H](CCCCN)C(=O)N[C@@H](CCCNC(=N)N)C(=O)N[C@H](C(=O)N[C@@H](CC(C)C)C(=O)N[C@@H](CCC(=O)O)C(=O)N[C@@H](CCCNC(=N)N)C(=O)N[C@H](C(N)=O)C(C)C)[C@@H](C)CC)C(=O)O
B6: SEQ ID NO: 167 (peptide)
peptide: Ac-IVLSLD[dV]PIGLK([AEEA-AEEA-γGlu-C18 diacid])QILLEQERQK[Aib]QREQAEKNEQILEQV-NH2
SMILES: CC[C@H](C)[C@H](NC(C)=O)C(=O)N[C@H](C(=O)N[C@@H](CC(C)C)C(=O)N[C@@H](CO)C(=O)N[C@@H](CC(C)C)C(=O)N[C@@H](CC(=O)O)C(=O)N[C@@H](C(=O)N1CCC[C@H]1C(=O)N[C@H](C(=O)NCC(=O)N[C@@H](CC(C)C)C(=O)N[C@@H](CCCCNC(=O)COCCOCCNC(=O)COCCOCCNC(=O)CC[C@H](NC(=O)CCCCCCCCCCCCCCCCC(=O)O)C(=O)O)C(=O)N[C@@H](CCC(N)=O)C(=O)N[C@H](C(=O)N[C@@H](CC(C)C)C(=O)N[C@@H](CC(C)C)C(=O)N[C@@H](CCC(=O)O)C(=O)N[C@@H](CCC(N)=O)C(=O)N[C@@H](CCC(=O)O)C(=O)N[C@@H](CCCNC(=N)N)C(=O)N[C@@H](CCC(N)=O)C(=O)N[C@@H](CCCCN)C(=O)NC(C)(C)C(=O)N[C@@H](CCC(N)=O)C(=O)N[C@@H](CCCNC(=N)N)C(=O)N[C@@H](CCC(=O)O)C(=O)N[C@@H](CCC(N)=O)C(=O)N[C@@H](C)C(=O)N[C@@H](CCC(=O)O)C(=O)N[C@@H](CCCCN)C(=O)N[C@@H](CC(N)=O)C(=O)N[C@@H](CCC(=O)O)C(=O)N[C@@H](CCC(N)=O)C(=O)N[C@H](C(=O)N[C@@H](CC(C)C)C(=O)N[C@@H](CCC(=O)O)C(=O)N[C@@H](CCC(N)=O)C(=O)N[C@H](C(N)=O)C(C)C)[C@@H](C)CC)[C@@H](C)CC)[C@@H](C)CC)C(C)C)C(C)C
B7: SEQ ID NO: 163 (peptide)
peptide: Ac-IVLSLD[dV]PIHLK([AEEA-AEEA-γGlu-C18 diacid])QILLEQERQK[Aib]QREQAEKNKQILEQV-NH2

Biological target: human corticotropin-releasing factor 2α (CRF2 α receptor) (human), Q13324
Assay: cell-based or functional assay

Chain of human corticotropin-releasing factor 2α (CRF2 α receptor) (human), Q13324 (Q13324 20-411): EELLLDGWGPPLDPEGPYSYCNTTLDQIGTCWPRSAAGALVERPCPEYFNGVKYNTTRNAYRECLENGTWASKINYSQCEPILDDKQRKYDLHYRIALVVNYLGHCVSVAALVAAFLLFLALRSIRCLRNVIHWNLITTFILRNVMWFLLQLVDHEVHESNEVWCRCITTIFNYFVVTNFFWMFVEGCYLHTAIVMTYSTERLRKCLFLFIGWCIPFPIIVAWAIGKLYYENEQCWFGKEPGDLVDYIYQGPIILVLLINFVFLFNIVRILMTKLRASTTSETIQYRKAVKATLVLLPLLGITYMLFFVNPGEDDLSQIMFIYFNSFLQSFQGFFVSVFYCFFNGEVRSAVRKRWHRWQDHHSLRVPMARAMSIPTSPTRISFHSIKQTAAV

EC50 [nM], 0% HSA [nM]	EC50 [nM], 0.1% HSA [nM]	Binder
0.9	14	B1
0.69	10.1	B2
0.28	5.06	B3
2	30.5	B4
0.01	–	B5
3.95	74.4	B6
0.24	3.91	B7
